B1: G88P3: 1395-bp derivative of the G88P2 promoter, SEQ ID NO: 60 (nucleic acid, listed as Homo sapiens)
DNA: TCTAGATGTACCACTGACATCTGCTTTAAATCTTTTGCCCATTTCATTTTTACCCTCTAACCATTTCATTACTAAAACACAAAACAAACTCCGGAAAGGAGTTTGTTGATGAGAAAACACTGAAAGTACGATTTAAATTGAGGAATGGAGATTTTCTGTGGATAATTGTCTATGTTCCACTTTACCAAAGAAAAATGAATTTCAAGTAGTGCATAAAGTAATTCTCGTTAAAAAATGTGGGAATAAAGAGATCAGTCCTGGGTACTGGGAATATATTTATCTCACAGAAAAATCTTGCCCACAAAATGCATCAGACTGAGATGAAATACTCTAGGGTATATTAAATTTTATTCTAATATTGAAGGGAGGGAAAAAAAGGACGGAAAGAAAAATGAAACAGGATGAAAAATAAGGTGATTGGGAGAGAGAAAAGACAGAGAAACTTGTTAACGACAGGACTTTCTGAGCAAGATATTTTTCTTCCTTTTACAAGTTGGAAGCTATTGAATAATTCATGCCAAGCGTGGAAAGGCTGTCTTTTCCCTGGATGATGTATAACTAAGCAGGAGAGAGCTTCGAGTGGGTTCACCACATCAGCCACCACTCCTGCTTCTGAGCACAGGGTGCTCTCCTCTTGAGCTCAGCTTCTGCTTTTGCAGCCAAGCATTCTTGCTGCTGCTGCCTGCCTGCCCACCCGCCTGGGCTTGCAGCCCGCCACTTTACTTTCTCCAGCCCTGATACCAGCTGAGAAGTCTCCCTGCAGCTGCTAGTTCCTGCCCAGGACCATGTGTGTGGATGCTGCTTGGGAGAAGCGGGCACTTGCTCCTGGCACTGATCCCAGCTGAGTTTCTCCTGTTGATTTCTGGACCACTGATGCTGTTGCTGAGGAGGTATTTCCCGGCATCCCTCCCCCTGAGACACCGGCTAAGGACCAGCCTAAACGCAAGGTAACCTTCACCTCTTTCCCATGGGATTTTCCCCAGCTGGGATATCTCTGCTTTCTCCTGGAACTAGGTCCTCCAGCTGGCAACATATCTCTCTCTCTCTCTCTCTCTCTCTCTCTCTCTCTCTGTGTGTGTGTGTGTGTGTTGGGGGAGAAGAGGAGACTGTTTTAGGTATTGCTCTGTCCTAGGGCTTCCCCGATACCTGCTGAATCCAATGCAAAGTGGCCTTTCCCCTGGCTCTGGAGACATTTCCGAGGCAGGCACCTGTCATTTGCCACCCCCGTCCTCCTCCTCGAGCTCCCTTTCTCCCCCTCCCCCAGCCCATTATTCTGCTTCAGCCTTTTGTGTCAGTGGCAGAGGGCTGAAGGGATGTCTTTGCCCTTCTGGCAGGCAGGACAGTGTCAGGATGGACCGCGCTGCCAGAAGCCGACGCTAGCGAGGGAGGTGTGAA
B2: G88P7: 896-bp derivative of the G88P2 promoter, SEQ ID NO: 61 (nucleic acid, listed as Homo sapiens)
DNA: ATGCCAAGCGTGGAAAGGCTGTCTTTTCCCTGGATGATGTATAACTAAGCAGGAGAGAGCTTCGAGTGGGTTCACCACATCAGCCACCACTCCTGCTTCTGAGCACAGGGTGCTCTCCTCTTGAGCTCAGCTTCTGCTTTTGCAGCCAAGCATTCTTGCTGCTGCTGCCTGCCTGCCCACCCGCCTGGGCTTGCAGCCCGCCACTTTACTTTCTCCAGCCCTGATACCAGCTGAGAAGTCTCCCTGCAGCTGCTAGTTCCTGCCCAGGACCATGTGTGTGGATGCTGCTTGGGAGAAGCGGGCACTTGCTCCTGGCACTGATCCCAGCTGAGTTTCTCCTGTTGATTTCTGGACCACTGATGCTGTTGCTGAGGAGGTATTTCCCGGCATCCCTCCCCCTGAGACACCGGCTAAGGACCAGCCTAAACGCAAGGTAACCTTCACCTCTTTCCCATGGGATTTTCCCCAGCTGGGATATCTCTGCTTTCTCCTGGAACTAGGTCCTCCAGCTGGCAACATATCTCTCTCTCTCTCTCTCTCTCTCTCTCTCTCTCTCTCTCTGTGTGTGTGTGTGTGTGTTGGGGGAGAAGAGGAGACTGTTTTAGGTATTGCTCTGTCCTAGGGCTTCCCCGATACCTGCTGAATCCAATGCAAAGTGGCCTTTCCCCTGGCTCTGGAGACATTTCCGAGGCAGGCACCTGTCATCTGCCACCCCCGTCCTCCTCCTCGAGCTCCCTTTCTCCCCCTCCCCCAGCCCATTATTCTGCTTCAGCCTTTTGTGTCAGTGGCAGAGGGCTGAAGGGATGTCTTTGCCCTTCTGGCAGGCAGGACAGTGTCAGGATGGACCGCGCTGCCAGAAGCCGACGCTAGCGAGGGAGGTGTGAAGAGTTGGCCAG

Columns and labels:
[1] = system: MSNs in the striatum (STR); experiment: Promoter activity driving EYFP reporter expression after AAV injection into the SNr: striatum; type: in vivo, mice; conditions: for labeled MSNs, reporter expression driven by promoter (FIG. 4B): mean±SEM, n=3 mice, AAV8R12 capsid; for Activity Level STR: numbers of YFP-expressing neurons per animal
Text: (§1) Brain profiles of two epigenetic marks for enhancers and promoters, monomethylation of histone H3 lysine 4 (H3K4me1) and acetylation of histone H3 lysine 27 (H3K27ac) were checked and approximately 2 kilobase-long sequences around the transcriptional start site (TSS) that have high levels of H3K4me1 and/or H3K27ac were identified in mouse brain. Homologous sequences at equivalent positions of the human genome were then cloned onto an AAV backbone, and the activity of the homologous sequences in directing reporter expression was tested in mice after injections of AAVs into the SNr (FIG. 3A-C, TABLE 3).
G88P2 (2259 bp) was cloned with the following primers: 5′-[…] (SEQ ID NO.: 36) and 3-[…] (SEQ ID NO.: 37). To increase the payload of AAV genome, the G88P2 promoter was shorted using restriction enzymes, and two derivatives, G88P3 and G88P7, were made which were 1395-bp and 896-bp long, respectively (FIG. 3A-3C). Comparative efficiency in labeling MSNs for the two shortened promoters was observed. For mice that received viral injections into the SNr, viruses expressing EYFP driven by G88P3 and G88P7 promoters labeled 3.7±0.66×104 and 3.95±0.73×104 MSNs per mouse, respectively, compared to 1.61±0.16×104 labeled MSNs by hSyn promoter (FIG. 4B).
(§2) Region-selective promoter identification was based on the Allen Brain Atlas in situ hybridization (ISH) data (mouse.brain-map.org/). Genes highly expressed in the striatum but not in other parts of the basal ganglia were first selected as candidates. H3K4me1 and H3K27ac are known epigenetic marks for active promoters and enhancers. Thus, we identified regions with high levels of these two chromatin modification marks in mouse brain as candidate regions based on the ENCODE annotation data on the UCSC Genome Browser (genome.ucsc.edu/). To further extend the promoters' potential application in primates, the sequences of interest were PCR-amplified from human genomic DNA. Based on the above strategies, GPR88 was selected as a candidate gene. The nucleotide sequence upstream of the start codon with high H3K4me1 and H3K27ac levels was selected as the candidate promoter sequence. G88P2 (2259 bp) was cloned with the following primers: 5′-[…]-3′ (SEQ ID NO: 36), 5′-[…]-3′ (SEQ ID NO: 58). G88P3 (1395 bp) and G88P7 (896 bp) were further shortened by subcloning.
Promoters were subcloned into a pAAV-hSyn-EYFP vector derived from pAAV-hSyn-EGFP (Addgene, 50465) to replace the hSyn promoter by using appropriate restriction enzyme combinations. To generate pAAV-G88P7-DIO-tdTomato, a DIO-tdTomato cassette was subcloned into pAAV-G88P7-EYFP to replace EYFP by restriction enzyme digestion. To generate pAAV-G88P3-HA-hM3Dq, promoter G88P3 was subcloned into pAAV-hSyn-HA-hM3Dq-IRES-mCitrine (Addgene, 50463) via the EcoRI/BamHI restriction sites to replace the hSyn promoter and IRES-mCitrine was removed afterwards by restriction enzyme digestion. To generate pAAV-G88P3-HA-hM3Dq-2A-EYFP, a 2A-EYFP fragment was subcloned into pAAV-G88P3-HA-hM3Dq after hM3Dq. […]
Images were acquired using a confocal microscope (Carl Zeiss, LSM880) and an Axiolmager.Z1 microscope with apotome (Carl Zeiss). […] Every sixth section was analyzed, and numbers of EYFP+ cells were multiplied by six to acquire the approximate total number and mean number of cells per animal. […]

substantia nigra (SN) = experiment: Promoter activity driving EYFP reporter expression after AAV injection into the SNr: substantia nigra; type: in vivo, mice; conditions: numbers of YFP-expressing neurons per animal
Text: as §1
as §2, with “subcloning. […]” for “subcloning.”
Images were acquired using a confocal microscope (Carl Zeiss, LSM880) and an Axiolmager.Z1 microscope with apotome (Carl Zeiss). […] Every sixth section was analyzed, and numbers of EYFP+ cells were multiplied by six to acquire the approximate total number and mean number of cells per animal. Images were processed using ImageJ (NIH, USA), and final quantifications were independently performed manually by two blinded experimenters.

Molecule | labeled MSNs, reporter expression driven by promoter (FIG. 4B) [1] | Activity Level STR [1] | Activity Level SN (substantia nigra (SN))
B1 | 37026±6646 | ++++ (>25 k) | + (<5 k)
B2 | 39460±7281 | ++++ (>25 k) | + (<5 k)

From US20250382588A1, “CHIMERIC AAV AND USES THEREOF” (priority 2023, published 2025)
